Eleven molecules from patent US20170145112A1 (Genentech, published 2017) can be followed below.

Test [1] concerns the target T1, Human complement Factor D, mature (human, UniProt P00746 27-253).
T1 construct: In the TR-FRET assay the factor D was bought from Complement Technology; In the hemolysis assay it was the factor D of C1q-depleted human serum; also called human Factor D; hFD
Kind of test: SPR, Fab captured by anti-huFab, human Factor D injected.
Experimental: (§1) Kinetics and binding constant KD for Factor D binding to immobilized hu20D12 versions was determined by surface plasmon resonance (SPR) measurements on a Biacore®T200 instrument. […] After subtraction of the sensorgram observed for injection of running buffer, data were analyzed according to a 1:1 model using BiaEval software v4.1 (GE Healthcare) to extract the kinetics and affinity constants.

For test [2], the target named is T1, Human complement Factor D, mature. Put plainly: cell-based or functional assay.
Test [3] shares this target. Put plainly: SPR, Biacore T200, IgG captured by anti-Fc, human factor D injected.
For test [4] the target is unchanged. Kind of test: cell-based or functional assay. The source holds these as a separate data set.
Test [5] shares this target. Kind of test: cell-based or functional assay. This is another data set of the same source.
Target sequence in this assay (P00746 27-253): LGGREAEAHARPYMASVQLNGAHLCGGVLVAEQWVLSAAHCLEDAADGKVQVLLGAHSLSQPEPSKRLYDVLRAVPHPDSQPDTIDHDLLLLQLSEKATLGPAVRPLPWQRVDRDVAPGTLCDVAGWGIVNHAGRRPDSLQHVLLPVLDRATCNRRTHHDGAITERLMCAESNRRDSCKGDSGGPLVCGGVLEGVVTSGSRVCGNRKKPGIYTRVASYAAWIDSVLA
Test [6] has the same target. Kind of test: cell-based or functional assay. The source holds these as a separate data set.
Test [7] has the same target. Put plainly: SPR (Biacore T200): Fab captured with anti-huFab kit, human Factor D injected, 25 C, 1:1 model.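 Further: sensorgrams were corrected by subtracting a blank injection of running buffer before fitting kinetic and affinity constants.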
Experimental: as §1
Test [8] shares this target. Kind of test: SPR, at the limit of detection.
Target sequence in this assay (P00746 27-253): as above
Experimental: as §1
For test [9], the target named is T2, Cynomolgus monkey complement Factor D (cynomolgus monkey, UniProt P00746 26-253 (human entry)).
T2 construct: also called cyfD; cFD
T2 chain: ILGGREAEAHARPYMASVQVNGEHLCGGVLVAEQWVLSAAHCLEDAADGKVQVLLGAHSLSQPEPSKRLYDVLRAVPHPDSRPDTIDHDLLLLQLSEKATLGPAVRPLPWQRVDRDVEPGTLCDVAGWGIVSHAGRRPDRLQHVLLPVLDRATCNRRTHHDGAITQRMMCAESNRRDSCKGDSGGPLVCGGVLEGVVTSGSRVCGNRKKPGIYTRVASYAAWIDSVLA
Kind of test: SPR (Biacore T200), Fab format; cynomolgus Factor D (column 'KD (pM) cFD (cyno)').

The target in test [10] is T1, Human complement Factor D, mature. Kind of test: cell-based or functional assay. The source holds these as a separate data set.
Target sequence in this assay (P00746 27-253): as the sequence (P00746 27-253) above
For test [11] the target is unchanged. Kind of test: SPR (refers to FIG. 11); hu20D12.v2.0.
Experimental: as §1
Test [12] has the same target. Kind of test: cell-based or functional assay. This is another data set of the same source.

B1: hu20D12.v1 Fab (Fab, V domains shown)
VH: EVQLVQSGAEVKKPGASVKVSCKASGYTFTSYYMYWVRQAPGQGLEWIGEINPTNGGTNFNEKFKSRATLTVDTSTSTAYLELSSLRSEDTAVYYCAREGGFAYWGQGTLVTVSS
VL: DIQMTQSPSSLSASVGDRVTITCKASQNVDTDVAWFQQKPGKAPKGLIYSASSRYSGVPSRFSGSGSGTDFTLTISSLQPEDFATYYCQQYNNYPLTFGQGTKVEIKR
notes: Fab expressed in E. coli
For the molecule B1, in test [1], the Kd was found to be 33 pM. In test [2], the “IC50 Hemolysis” value turned out to be 2800 pM.

B2: hu20D12.v1 IgG (antibody, V domains shown)
VH: EVQLVQSGAEVKKPGASVKVSCKASGYTFTSYYMYWVRQAPGQGLEWIGEINPTNGGTNFNEKFKSRATLTVDTSTSTAYLELSSLRSEDTAVYYCAREGGFAYWGQGTLVTVSS
VL: DIQMTQSPSSLSASVGDRVTITCKASQNVDTDVAWFQQKPGKAPKGLIYSASSRYSGVPSRFSGSGSGTDFTLTISSLQPEDFATYYCQQYNNYPLTFGQGTKVEIK
notes: Expressed as full length IgG in CHO cells
In test [3], B2 had a Kd of 46 pM, a koff of 0.00067 s⁻¹ and a kon of 1.5e+07 M⁻¹ s⁻¹. The “Hemolysis IC50” value in test [4] worked out at 4300 pM.

B3: hu20D12.v2.3.C+TP-Oct (Fab, V domains shown)
VH: EVQLVQSGAEVKKPGASVKVSCKASGYTFTSYYMYWVRQAPGQGLEWIGEINPYSGDTNFNEKFKSRATLTVDTSTSTAYLELSSLRSEDTAVYYCAREGGFAYWGQGTLVTVSS
VL: DIQMTQSPSSLSASVGDRVTITCKASQNVDTDVAWFQQKPGKAPKGLIRSASSRYSGVPSRFSGSGSGTDFTLTISSLQPEDFATYYCQQYNNYPLTFGQGTKVEIKR
modifications: C-terminal Cys (Cys-226, EU numbering) linked through maleimide to a 40K eight-armed PEG with tripentaerythritol (TP) core
For the molecule B3, the “IC50, TR-FRET assay of Factor D (50 pM) cleavage of factor B” value (from here on “IC50, TR-FRET assay of Factor D”) in [5] worked out at 13 pM.

B4: hu20D12.v2.1.C+TP-Oct (Fab, V domains shown)
VH: EVQLVQSGAEVKKPGASVKVSCKASGYTFTSYYMYWVRQAPGQGLEWIGEINPTSGGTNFNEKFKSRATLTVDTSTSTAYLELSSLRSEDTAVYYCAREGGFAYWGQGTLVTVSS
VL: DIQMTQSPSSLSASVGDRVTITCKASQNVDTDVAWFQQKPGKAPKGLIRSASSRYSGVPSRFSGSGSGTDFTLTISSLQPEDFATYYCQQYNNYPLTFGQGTKVEIKR
modifications: C-terminal Cys (Cys-226, EU numbering) linked through maleimide to a 40K eight-armed PEG with tripentaerythritol (TP) core
Take B4: the “IC50, TR-FRET assay of Factor D” value in test [5] was determined as 31 pM.

B5: hu20D12.v1.1 Fab (Fab, V domains shown)
VH: EVQLVQSGAEVKKPGASVKVSCKASGYTFTSYYMYWVRQAPGQGLEWIGEINPTQGGTNFNEKFKSRATLTVDTSTSTAYLELSSLRSEDTAVYYCAREGGFAYWGQGTLVTVSS
VL: DIQMTQSPSSLSASVGDRVTITCKASQNVDTDVAWFQQKPGKAPKGLIYSASSRYSGVPSRFSGSGSGTDFTLTISSLQPEDFATYYCQQYNNYPLTFGQGTKVEIKR
notes: Fab expressed in E. coli; also called Hu20D12.v1.N54Q
As to B5, the Kd in test [1] was 45 pM. Further, the “IC50 Hemolysis” value in test [2] was found to be 6700 pM.

B6: hu20D12.v2.15 Fab (Fab, V domains shown)
VH: EVQLVQSGAEVKKPGASVKVSCKASGYTFTSYYMYWVRQAPGQGLEWIGEINPYSGETNFNEKFKSRATLTVDTSTSTAYLELSSLRSEDTAVYYCAREGGFAYWGQGTLVTVSS
VL: DIQMTQSPSSLSASVGDRVTITCKASQNVDTDVAWFQQKPGKAPKGLIRSASSRYSGVPSRFSGSGSGTDFTLTISSLQPEDFATYYCQQYNNYPLTFGQGTKVEIKR
With B6, in test [6], the “FRET IC50 (TR-FRET assay of Factor D-dependent factor B activation)” value was 24 pM. In test [7], this molecule had a Kd below 10 pM, a koff of 6e-05 s⁻¹ and a kon of 1.9e+07 M⁻¹ s⁻¹. In test [8], this molecule showed a Kd of around 10 pM. The same molecule gave a Kd in [9] of 27 pM.

B7: hu20D12.v2.3 Fab (Fab, V domains shown)
VH: EVQLVQSGAEVKKPGASVKVSCKASGYTFTSYYMYWVRQAPGQGLEWIGEINPYSGDTNFNEKFKSRATLTVDTSTSTAYLELSSLRSEDTAVYYCAREGGFAYWGQGTLVTVSS
VL: DIQMTQSPSSLSASVGDRVTITCKASQNVDTDVAWFQQKPGKAPKGLIRSASSRYSGVPSRFSGSGSGTDFTLTISSLQPEDFATYYCQQYNNYPLTFGQGTKVEIKR
As for B7, in test [5], the “IC50, TR-FRET assay of Factor D” value was 31 pM. In test [6], the “FRET IC50 (TR-FRET assay of Factor D-dependent factor B activation), value 1 of 3 in the cell” value came out at 25 pM; the “FRET IC50 (TR-FRET assay of Factor D-dependent factor B activation), value 2 of 3 in the cell” value was 31 pM; the “FRET IC50 (TR-FRET assay of Factor D-dependent factor B activation), value 3 of 3 in the cell” value was determined as 31 pM. Moreover, in [7], the Kd is below 10 pM, the koff was 2.9e-05 s⁻¹ and the kon turned out to be 1.2e+07 M⁻¹ s⁻¹. Also, the “AVG IC50 (pM), TR-FRET assay of Factor D-dependent factor B activation” value (“AVG IC50 (pM), TR-FRET assay” below) in [10] is 31.2 pM. The Kd in test [8] is around 10 pM. Moreover, in test [9], binding was characterised by a dissociation constant (Kd) of 24 pM.

B8: hu20D12.v2.14 Fab (Fab, V domains shown)
VH: EVQLVQSGAEVKKPGASVKVSCKASGYTFTSYYMYWVRQAPGQGLEWIGEINPTSGETNFNEKFKSRATLTVDTSTSTAYLELSSLRSEDTAVYYCAREGGFAYWGQGTLVTVSS
VL: DIQMTQSPSSLSASVGDRVTITCKASQNVDTDVAWFQQKPGKAPKGLIRSASSRYSGVPSRFSGSGSGTDFTLTISSLQPEDFATYYCQQYNNYPLTFGQGTKVEIKR
For B8, in test [6], the “FRET IC50 (TR-FRET assay of Factor D-dependent factor B activation)” value worked out at 25 pM. In test [7], the Kd is below 10 pM, the koff was found to be 8e-05 s⁻¹ and the kon is 1.5e+07 M⁻¹ s⁻¹. Moreover, the Kd in [8] is around 10 pM. The same molecule registered a Kd in test [9] of 50 pM.

B9: hu20D12.v2.0 Fab (Fab, V domains shown)
VH: EVQLVQSGAEVKKPGASVKVSCKASGYTFTSYYMYWVRQAPGQGLEWIGEINPTSGGTNFNEKFKSRATLTVDTSTSTAYLELSSLRSEDTAVYYCAREGGFAYWGQGTLVTVSS
VL: DIQMTQSPSSLSASVGDRVTITCKASQNVDTDVAWFQQKPGKAPKGLIYSASSRYSGVPSRFSGSGSGTDFTLTISSLQPEDFATYYCQQYNNYPLTFGQGTKVEIKR
notes: Fab expressed in E. coli; also called Hu20D12.v1.N54S; hu20D12.v1.N54S
In [11], B9 came in with a Kd of 39 pM. In addition, in [6], the “FRET IC50 (TR-FRET assay of Factor D-dependent factor B activation), value 1 of 2 in the cell” value was 51 pM and the “FRET IC50 (TR-FRET assay of Factor D-dependent factor B activation), value 2 of 2 in the cell” value is 59 pM. In [7], this molecule had an off-rate constant (koff) of 0.00055 s⁻¹ and a kon of 1.4e+07 M⁻¹ s⁻¹. Also, the affinity in test [1], expressed as Kd, was 40 pM. Besides, the “IC50 in the TR-FRET assay, fold against lampalizumab” value in test [12] was around 2 fold. Besides, the “IC50 Hemolysis” value in [2] worked out at 4700 pM. The “AVG IC50 (pM), TR-FRET assay” value in test [10] is 59.2 pM. Besides, the Kd in test [9] came out at 152 pM.

B10: murine 20D12 (mu20D12) IgG (antibody, V domains shown)
VH: QVQLQQSGAELVKPGASVKLSCKASGYTFTSYYMYWVKERPGQGLEWIGEINPTNGGTNFNEKFKSKATLTVDTSSNTAYMQLSSLTSEDSAVYYCAREGGFAYWGQGTLVTVSA
VL: DIVMTQSQKFMSTSVGDRVSVTCKASQNVDTDVAWFQQKPGQSPRGLIYSASSRYSGVPDRFTGSGSGTDFTLTISNVQSEDLAEYFCQQYNNYPLTFGSGTKVEIK
notes: IgG format, mouse antibody
In the case of B10, in test [3], the affinity, expressed as Kd, was 66 pM; the koff was found to be 0.00039 s⁻¹; the kon worked out at 5.9e+06 M⁻¹ s⁻¹. Besides, the “Hemolysis IC50” value in test [4] was found to be 4000 pM.

B11: AFD.v14 Fab (Fab, V domains shown)
VH: EVQLVQSGPELKKPGASVKVSCKASGYTFTNYGMNWVRQAPGQGLEWMGWINTYTGETTYAEDFKGRFVFSLDTSVSTAYLQISSLKAEDTAVYYCEREGGVSNWGQGTLVTVSS
VL: DIQVTQSPSSLSASVGDRVTITCITSTSIESDMNWYQQKPGKVPKLLISGGNTLRPGVPSRFSGSGSGTDFTLTISSLQPEDVATYYCLQSDSLPYTFGQGTKVEIKR
notes: Variant of lampalizumab; also called SIESD.N103S
With B11, the “IC50, TR-FRET assay of Factor D” value in test [5] amounted to 26 pM. In test [6], the “FRET IC50 (TR-FRET assay of Factor D-dependent factor B activation), value 1 of 3 in the cell” value worked out at 25 pM; the “FRET IC50 (TR-FRET assay of Factor D-dependent factor B activation), value 2 of 3 in the cell” value was determined as 34 pM; the “FRET IC50 (TR-FRET assay of Factor D-dependent factor B activation), value 3 of 3 in the cell” value came out at 26 pM. In [7], the Kd was 23.3 pM, the koff stood at 0.00021 s⁻¹ and the kon turned out to be 9e+06 M⁻¹ s⁻¹. For the same molecule, in test [10], the “AVG IC50 (pM), TR-FRET assay” value worked out at 34 pM. Further, in test [9], the Kd was found to be 56 pM.
